# Test results from patent publication US20260116960A1 (SHANGHAI HONGCHENG BIOPHARMACEUTICAL, published 2026).
# B1: 202F1 (VHH)
# VHH: EVQLLESGGGLVQPGGSLRLSCAASGSIFSINHMAWYRQAPGKQRELVAGVNSRGTTNYVDSVKGRFTISRDNSKNTLYLQMNSLRAEDTAVYYCRALGGAVAAWGQGTLVTVSS
# notes: also called anti-CTLA-4 nanobody (202F1)
# B2: HC010-F14 (trispecific antibody, human IgG4 S228P)
# heavy 1: EVQLVESGGGLVQPGGSLRLSCAASGFTFSSYGMSWVRQAPGKCLEWVSTISGGGRDTYYPDSVKGRFTISRDNSKNTLYLQMNSLRAEDTAVYYCARQNGITWFADWGQGTLVTVSSGGGGSGGGGSGGGGSGGGGSDIQMTQSPSSLSASVGDRVTITCRASESVDNYGISFMNWYQQKPGKAPKLLIYAASNQGSGVPSRFSGSGSGTDFTLTISSLQPEDFATYYCQQSKEVPWTFGCGTKVEIKGGGGSGGGGSGGGGSGGGGSESKYGPPCPPCPAPEFLGGPSVFLFPPKPKDTLMISRTPEVTCVVVDVSQEDPEVQFNWYVDGVEVHNAKTKPREEQFNSTYRVVSVLTVLHQDWLNGKEYKCKVSNKGLPSSIEKTISKAKGQPREPQVYTLPPCQEEMTKNQVSLWCLVKGFYPSDIAVEWESNGQPENNYKTTPPVLDSDGSFFLYSRLTVDKSRWQEGNVFSCSVMHEALHNHYTQKSLSLSLGAGGGGSGGGGSGGGGSGGGGSEVQLVESGGGLVQPGGSLRLSCAASGYTFTNYGMNWVRQAPGKCLEWVGWINTYTGEPTYAADFKRRFTFSLDTSKSTAYLQMNSLRAEDTAVYYCAKYPHYYGSSHWYFDVWGQGTLVTVSSGGGGSGGGGSGGGGSGGGGSDIQMTQSPSSLSASVGDRVTITCSASQDISNYLNWYQQKPGKAPKVLIYFTSSLHSGVPSRFSGSGSGTDFTLTISSLQPEDFATYYCQQYSTVPWTFGCGTKVEIK
# heavy 2: EVQLLESGGGLVQPGGSLRLSCAASGSIFSINHMAWYRQAPGKQRELVAGVNSRGTTNYVDSVKGRFTISRDNSKNTLYLQMNSLRAEDTAVYYCRALGGAVAAWGQGTLVTVSSGGGGSGGGGSGGGGSGGGGSESKYGPPCPPCPAPEFLGGPSVFLFPPKPKDTLMISRTPEVTCVVVDVSQEDPEVQFNWYVDGVEVHNAKTKPREEQFNSTYRVVSVLTVLHQDWLNGKEYKCKVSNKGLPSSIEKTISKAKGQPREPQVCTLPPSQEEMTKNQVSLSCAVKGFYPSDIAVEWESNGQPENNYKTTPPVLDSDGSFFLVSRLTVDKSRWQEGNVFSCSVMHEALHNRFTQKSLSLSLGAGGGGSGGGGSGGGGSGGGGSEVQLVESGGGLVQPGGSLRLSCAASGYTFTNYGMNWVRQAPGKCLEWVGWINTYTGEPTYAADFKRRFTFSLDTSKSTAYLQMNSLRAEDTAVYYCAKYPHYYGSSHWYFDVWGQGTLVTVSSGGGGSGGGGSGGGGSGGGGSDIQMTQSPSSLSASVGDRVTITCSASQDISNYLNWYQQKPGKAPKVLIYFTSSLHSGVPSRFSGSGSGTDFTLTISSLQPEDFATYYCQQYSTVPWTFGCGTKVEIK
# notes: also called H010-F14
# B3: 202F1-hIgG1 (antibody, V domains shown)
# VH: B1 VHH
# notes: also called anti-CTLA-4 nanobody 202F1 with hIgG1 constant region
# B4: sintilimab (antibody, V domains shown)
# VH: QVQLVQSGAEVKKPGSSVKVSCKASGGTFSSYAISWVRQAPGQGLEWMGLIIPMFDTAGYAQKFQGRVAITVDESTSTAYMELSSLRSEDTAVYYCARAEHSSTGTFDYWGQGTLVTVSS
# VL: DIQMTQSPSSVSASVGDRVTITCRASQGISSWLAWYQQKPGKAPKLLISAASSLQSGVPSRFSGSGSGTDFTLTISSLQPEDFATYYCQQANHLPFTFGGGTKVEIK
# B5: camrelizumab (antibody, V domains shown)
# VH: EVQLVESGGGLVQPGGSLRLSCAASGFTFSSYMMSWVRQAPGKGLEWVATISGGGANTYYPDSVKGRFTISRDNAKNSLYLQMNSLRAEDTAVYYCARQLYYFDYWGQGTTVTVSS
# VL: DIQMTQSPSSLSASVGDRVTITCLASQTIGTWLTWYQQKPGKAPKLLIYTATSLADGVPSRFSGSGSGTDFTLTISSLQPEDFATYYCQQVYSIPWTFGGGTKVEIK
# What was measured:
# [1] = molecular target: T1, human CTLA-4 protein (Acro, Catalog No. CT4-H52H9) (human, UniProt P16410 36-161); experiment: BLI (Octet RED96e), antibody on AHC sensor, antigen as analyte 6.25-100 nM, 1:1 model
# T1 construct: Bought protein
# T1 sequence (P16410 36-161 limits assumed): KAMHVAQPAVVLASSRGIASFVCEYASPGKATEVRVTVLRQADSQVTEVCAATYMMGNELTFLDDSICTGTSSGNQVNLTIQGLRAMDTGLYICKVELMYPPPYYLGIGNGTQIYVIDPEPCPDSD
# Procedure: Octet® RED96e (ForteBio) was used to detect the affinity of trispecific antibodies to human PD-1, CTLA-4 and VEGFA. The specific method was as follows: the AHC Sensor was immersed in PBST (PBS containing 0.02% Tween) buffer for 10 minutes to activate the Sensor. The ligand (antibody to be tested) was diluted to 5 μg/mL with PBST buffer. […] The diluted ligand and analyte were added to the corresponding wells at 200 μL/well in triplicate. Program parameter settings: loading: 180 s, association: 180 s, dissociation: 600 s, regeneration: Gly-HCl pH 1.5, 30s, regeneration 3 times. […] Curve fit acceptance criteria: Full R\hat{ }2≥0.95.
# [2] = molecular target: T2, human PD-1 protein (Acro, Catalog No. PD1-H5221) (human, UniProt Q15116 25-167); experiment: ELISA, plate coated with human PD-1 protein
# T2 construct: Bought protein; also called human PD1-his; not shown: his tag
# T2 sequence (Q15116 25-167 limits assumed): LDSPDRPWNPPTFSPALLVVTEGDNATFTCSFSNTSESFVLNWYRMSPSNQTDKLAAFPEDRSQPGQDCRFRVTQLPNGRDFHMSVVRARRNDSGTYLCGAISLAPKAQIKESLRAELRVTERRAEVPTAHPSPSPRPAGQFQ
# Procedure: (§1) ELISA was used to determine the activity of the trispecific antibodies binding to the PD-1 protein: 1 μg/mL human PD-1 protein (Acro, Catalog No.: PD1-H5221) was used to coat a high-adsorption 96-well ELISA plate and incubated at 4° C. overnight. On the next day, the plate was washed three times with PBST solution and blocked with 1% BSA-PBS solution at 37° C. for 1 hour. At the same time, 3-fold gradient dilutions of the antibody were prepared with 1% BSA-PBS solution, with a starting concentration of 10 nM. The antibodies of each gradient concentration were added to the blocked 96-well ELISA plate at 100 µL/well in triplicate and incubated at 37° C. for 1 hour. The plate was then washed three times with 0.05% PBST solution, and 100 μL/well of HRP-labeled secondary antibody (Sigma, Catalog No.: A0170) diluted at 1:5000 was added to the ELISA plate and incubated at 37° C. for 1 hour. The plate was washed three times with 0.05% PBST solution and developed with TMB. The absorbance of the 96-well ELISA plate at 450 nm was detected by an ELISA reader. The OD₄₅₀ value was fitted using a four-parameter model to calculate the EC₅₀ value of each antibody binding to PD-1.
# [3] = molecular target: human PD-1 protein (Acro, PD1-H5257) (human, UniProt Q15116 25-167); experiment: competitive ELISA, PD-1 coated, biotin-PD-L1 as labelled ligand
# Chain of human PD-1 protein (Acro, PD1-H5257) (Q15116 25-167 limits assumed): as above
# Procedure: The next day, the plate was washed three times with PBS solution and blocked with 1% BSA-PBS solution at 37° C. for 1 hour. […] 100 μL of the antibody-protein mixture was added to each well of the blocked 96-well ELISA plate and incubated at 37° C. for 1 hour. After washing four times with PBST, 100 μL of Strep-HRP (BD, Catalog No. 554066) diluted 1:5000 was added to each well of the ELISA plate and incubated at 37° C. for 1 hour. After washing 4 times with PBST, TMB was used for color development. The absorbance at 450 nm and 630 nm was detected by a microplate reader, and OD450-OD630 was calculated. The fluorescence intensity was fitted using a four-parameter model, and the IC₅₀ value of the blocking activity of each antibody was calculated.
# [4] = molecular target: T1, human CTLA-4 protein (Acro, Catalog No. …); experiment: ELISA, plate coated with human CTLA-4 protein
# [5] = molecular target: T3, human PD-1 on the cell surface (human, UniProt Q15116 25-288); experiment: flow cytometry competition, 293T-hPD-1 cells, biotin-human PD-L1
# T3 construct: whole, on cells; also called cell surface PD-1
# T3 sequence (Q15116 25-288): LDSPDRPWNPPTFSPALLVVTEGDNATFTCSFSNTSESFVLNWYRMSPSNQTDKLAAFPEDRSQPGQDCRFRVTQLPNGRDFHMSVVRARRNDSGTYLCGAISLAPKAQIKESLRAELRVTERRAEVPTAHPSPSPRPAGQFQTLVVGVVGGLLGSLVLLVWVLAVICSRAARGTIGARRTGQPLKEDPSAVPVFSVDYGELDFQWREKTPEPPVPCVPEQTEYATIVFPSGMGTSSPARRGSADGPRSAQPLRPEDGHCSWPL
# Procedure: 50 μL of antibody solution serially diluted 3-fold in FACS buffer was added in triplicate, with a starting concentration of 200 nM. After mixing, incubated at 4° C. for 60 minutes. After washing three times with FACS buffer, 100 μL/well of 1:800 diluted PE Streptavidin was added and incubated at 4° C. for 50 min. After washing three times with FACS buffer, 150 μL/well of PBS was added to resuspend the cells, and the fluorescence signal was detected on a flow cytometer (BECKMAN COULTER cytoFLEX). The four-parameter model was used to fit the binding activity and the IC₅₀ value of the blocking activity of each antibody was calculated.
# [6] = molecular target: T4, human VEGF165-his protein (Acro, Catalog No. VE5-H5248) (human, UniProt P15692-4 27-191); experiment: ELISA, plate coated with human VEGF165-his
# T4 construct: Bought protein; also called hVEGF165-His; VEGFA; not shown: his tag
# T4 sequence (P15692 other isoform, or with tags, fused parts or gaps limits assumed): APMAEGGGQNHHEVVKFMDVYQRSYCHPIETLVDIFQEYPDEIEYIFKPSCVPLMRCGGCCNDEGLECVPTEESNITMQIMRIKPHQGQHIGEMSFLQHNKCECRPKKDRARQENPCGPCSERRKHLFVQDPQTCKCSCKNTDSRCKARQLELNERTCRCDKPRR
# Procedure: as §1
# The binding activity of the trispecific antibodies to VEGFA protein was detected by ELISA method as described in Section 2.1. The used human VEGF165-his protein was purchased from Acro, Catalog No.: VE5-H5248.
# [7] = molecular target: T5, human CTLA-4 on the cell surface (human, UniProt P16410 36-223); experiment: flow cytometry competition, 293T-hPD-1-hCTLA-4 cells (PD-1 co-expressed), biotin-human CD80
# T5 construct: whole, on cells; also called CHO-hCTLA-4 cells; CHOK1-hCTLA4 cells
# T5 sequence (P16410 36-223): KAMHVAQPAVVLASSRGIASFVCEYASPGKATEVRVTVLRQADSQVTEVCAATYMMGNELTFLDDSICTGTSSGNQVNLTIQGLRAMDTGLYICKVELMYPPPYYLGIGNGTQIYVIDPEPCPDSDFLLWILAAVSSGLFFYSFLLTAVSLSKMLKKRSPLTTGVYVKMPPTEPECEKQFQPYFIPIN
# Procedure: PD-1 and CTLA-4 are co-expressed on functionally exhausted T cells in the tumor microenvironment, and the expression level of PD-1 is higher than that of CTLA-4. […] 200 μL of the cells were added to a 96-well U-bottom plate, approximately 1.4×10⁵ cells/well. After centrifugation at 300 g for 5 minutes, the supernatant was discarded. […] After washing three times with FACS buffer, 100 μL/well of 1:800 diluted PE Streptavidin was added and incubated at 4° C. for 50 min. After washing three times with FACS buffer, 150 μL/well of PBS was added to resuspend the cells, and the fluorescence signal was detected on a flow cytometer (BECKMAN COULTER cytoFLEX). The binding activity was fitted using a four-parameter model, and the IC₅₀ value of the blocking activity of each antibody was calculated.
# [8] = molecular target: T5, human CTLA-4 on the cell surface; experiment: flow cytometry, CHO-hCTLA-4 cells, batch FACS#4
# [9] = molecular target: T5, human CTLA-4 on the cell surface; experiment: flow cytometry, CHO-hCTLA-4 cells, batch FACS#3
# [10] = molecular target: T3, human PD-1 on the cell surface; experiment: flow cytometry on activated human T cells (CD3+), PE anti-human IgG Fc
# Procedure: Human peripheral blood mononuclear cells (PBMCs, Miaoshun (Shanghai) Biotechnology Co., Ltd., Catalog No.: A19K154025) were rapidly thawed in a 37° C. water bath, resuspended in T cell isolating solution, and counted. After centrifugation at 400 g for 10 minutes, the supernatant was removed and the cells were resuspended to 5×10⁷ cells/mL with T cell separation buffer. T cells were isolated according to the procedure of a T cell isolation kit (Stemcell, Catalog No.: 19051), and the obtained T cells were resuspended in culture medium. The cells were counted using NucleoCounter NC-200 and the T cell density was adjusted to approximately 1×10⁶ cells/mL. Dynabeads containing anti-CD3 and anti-CD28 antibodies (Invitrogen™, Catalog No.: 11132D) and 10 ng/ml hIL-2 (Peprotech, Catalog No.: 200-02) were added and cultured in a 37° C., 5% CO₂ incubator for 3 days. After removing Dynabeads and supernatant, the activated T cells were resuspended in FACS buffer. The cell density was adjusted to about 1×10⁶ cells/mL, and 100 μL of cell solution was added into a 96-well U-bottom plate, 1×10⁵ cells/well. After centrifugation at 500 g for 5 minutes, the supernatant was discarded and 100 μL of the trispecific antibody solution of the present application serially diluted 3-fold with FACS buffer was added in triplicate, with a starting concentration of 200 nM. After mixing, incubated at 4° C. for 60 minutes. After centrifugation and washing three times with FACS buffer, 100 μL/well of PE anti-human IgG Fc (Biolegend, Catalog No.: 366903) was added and incubated at 4° C. for 50 minutes. After washing the plate three times with FACS buffer, 100 μL/well of BV421 anti-human CD3 antibody (OKT3) (Biolegend, Catalog No.: 317344) was added and incubated at 4° C. for 50 minutes. After washing the plate three times with FACS buffer, 70 μL/well of PBS solution was added to resuspend the cells, and the fluorescent signal on CD3 T cells was detected on a flow cytometer (BD Cellesta). The binding activity was fitted using a four-parameter model, and the EC₅₀ value of each antibody binding to T cells was calculated.
binder,measurement,setting,value
B1,Kd,[1],0.203 nM
B2,EC50,[2],0.472 nM
same,IC50,[3],2.41 nM
same,EC50,[4],0.734 nM
same,IC50,[5],> 200 nM
same,EC50,[6],0.096 nM
same,IC50,[7],0.116 nM
B3,EC50,[8],1.05 nM
same,EC50,[4],0.078 nM
same,EC50,[9],1.71 nM
B4,EC50,[10],0.231 nM
B5,EC50,[10],0.473 nM
